Measurements taken from patent US12209142B2, “SARS-CoV-2 epitope-targeted peptide immunostimulants” (Institute for Systems Biology, priority 2020, dated 2025).
“Also recorded” adds a separate entry of the source. Bridges are numbered along the chain shown (N, C = ends). Where no end group is shown, it is not given here. [ ]: non-standard residue; d: D form. Lys(N3) = [N-]=[N+]=NCCCC[C@H](N)C(=O)O; Pra = C#CC[C@H](N)C(=O)O

How the values were obtained:
[1] = target: T1, full-length recombinant MrkA protein (Klebsiella pneumoniae, UniProt P12267); assay: Sandwich ELISA of PCC binding to full-length MrkA; conditions: for binding / affinity to full-length MrkA protein (ELISA signal): compared with cy(LLFFF); for affinities to MrkA (likely): ELISA, full-length recombinant MrkA
T1 construct: purchased MyBiosource MBS1248970
T1 sequence (P12267 23-202): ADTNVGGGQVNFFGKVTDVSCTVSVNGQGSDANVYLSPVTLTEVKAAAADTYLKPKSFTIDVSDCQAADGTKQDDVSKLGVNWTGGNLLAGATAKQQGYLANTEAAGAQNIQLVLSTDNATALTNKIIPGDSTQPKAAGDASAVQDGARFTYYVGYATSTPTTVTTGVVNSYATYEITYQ
Method: The screen yielded 26 hits (Table 2) that were sequenced, scaled up, and tested for binding to full-length recombinant MrkA in solution by single-point sandwich Enzyme-linked immunoassays (ELISAs) (FIG. 8). HPraGly is present before X1 in each peptide and Az4 follows X5 in each peptide.
An alanine scan was performed to establish which residues of cy(LLFFF) (SEQ ID NO:5) contribute most to MrkA binding. In this assay, a sandwich ELISA is used to quantify the affinity of several cy(LLFFF) (SEQ ID NO:5) analogues, in which one residue is substituted with an alanine, towards full-length MrkA protein. The ELISA results in FIG. 4 show lower signal for every alanine-substituted cy(LLFFF) (SEQ ID NO:5) analogue compared to unmodified cy(LLFFF) (SEQ ID NO:5), establishing that the native compound has the highest affinity. […] Thus, these two C-terminal phenylalanine residues (FIG. 3A, arrows in inset) play critical roles in MrkA binding, and are targets for modifications to improve binding. Another important detail of these alanine scan results is a strong dependence of MrkA binding on the residue position, independent of residue type. For example, cy(LLAFF) (SEQ ID NO:9) and cy(LLFFA) (SEQ ID NO:11) have very different binding affinities, despite having the same phenylalanine-to-alanine substitution.
In vitro ELISA assays. ELISA assays for MrkA-binding and epitope selectivity were performed on clear NeutrAvidin Coated High Capacity Plates (ThermoFisher, 15507). The buffer used for all washes and to dissolve all compounds was TBST+0.1% BSA (TBS+0.05% Tween 20+0.1% BSA, pH 7.3) and, unless otherwise stated, steps were conducted at room temperature. Each wash involved a brief 20 s agitation, and all conjugation, blocking, and incubation steps were performed with gentle agitation over the entire stated time period. The general procedure for an ELISA assay was: wash 3×200 μL/well, conjugate with 2 μM of biotinylated compound for 2 h at room temperature (100 μL/well), wash 3×200 μL/well, blocked overnight in 5 wt % milk at 4° C., wash […] with wash buffer, incubate with titrated compound (e.g., MrkA or epitope) for 1 h, […], incubate with primary antibody […] for 1 h (100 μL/well), wash 3×200 μL/well, incubate with 1:2,000 anti-rabbit secondary antibody-horseradish peroxidase conjugate (Cell signaling Technologies, 7074S) for 1 h, 3×200 μL/well, develop with the Microwell Peroxidase Substrate System (2-C) (SeraCare, 5120-0047) using 100 μL/well for 1-40 minutes, and quench using 1 M H2SO4 (aq.) at 100 μL/well. For MrkA binding assays, biotinylated PCCs were conjugated to the well surface, recombinant MrkA with an N-terminal 6×His-SUMO-tag (MyBiosource, MBS1248970) was titrated at the desired concentration, and the primary antibody was His-tag antibody, pAb, Rabbit (Genscript, A00174) at a 1:5,000 dilution. For epitope selectivity assays, biotinylated SynEps were conjugated, DNP-conjugated AR-PCCs were titrated at a desired concentration, and the primary antibody was anti-DNP antibody produced in Rabbit (Sigma-Aldrich, D9656) at a 1:8,000 dilution. […] For binding tests in the context of mouse sera, the “titrated compound” described in the steps above was dispersed in a solution containing the desired concentration of mouse serum.

[2] = Isocratic point of PCCs (C18 prep-scale column elution); assay type: physicochemical
Description: The efficacy of AR-PCCs in vivo will not only depend on target binding, but also pharmacokinetic (PK) properties, of which clearance pathway is an important parameter. […] Modifications include single- and double-residue substitutions, residue removal, and the addition of non-ionic PEG and charged poly-arginine tags (Ri, where i represents the number of arginine). Results of this optimization are shown in FIG. 4B, which plots IP versus the affinity of the compound to MrkA, relative to cy(LLFFF) (SEQ ID NO:5).
PCC compounds were purified on a Waters Autopurification system, which isolated compounds based on MS peaks corresponding to protonated [M+1H]^+ and [M+2H]^2+, and/or sodium adducts [M+Na]^+ and [M+2Na]^2+. The isocratic points of PCCs were determined based on the elution of the compound from a C18 prep-scale column. Synthetic epitopes were either purified on the Waters Autopurification System, or by semi-preparative HPLC and then using matrix-assisted laser desorption/ionization mass spectroscopy to identify fractions with the desired m/z ratio. The resulting peptides were lyophilized, the yield determined by mass difference or UV-visible absorbance, and resuspended at a concentration of up to 10 mM peptide in DMSO. Peptides were stored at −80° C. before thawing for each use.

[3] = tested on: K. pneumoniae cells (strain BAA 1705); assay: Gentamicin protection assay: phagocytosis and opsonophagocytic killing (OPK) by macrophages; assay type: cell-based, Klebsiella pneumoniae; conditions: AR-PCC 5 μM, 1 h
Method: FIGS. 7A and 7B show a gentamicin protection assay that evaluates EPI-driven phagocytosis and opsonophagocytic killing (OPK) of K. pneumoniae cells by murine bone-marrow-derived macrophages. FIG. 7A is a flow diagram depicting the assay used to evaluate EPI-driven opsonophagocytic killing (OPK) of K. pneumoniae cells. Briefly, K. pneumoniae cells (strain BAA 1705) opsonized by EPIs (AR-PCCs) and anti-DNP antibodies were incubated with macrophages for 1 or 24 h. Macrophages were lysed, and the lysate was plated to obtain bacterial colonies that were subsequently counted. FIG. 7B is a plot of colony counts for various samples subjected to the OPK assay. […] All EPIs (AR-PCCs) were used at a 5 μM concentration, measurements were conducted in triplicate, and error bars reflect standard deviations. cy(LLFFA) is SEQ ID NO:11.
It also tested whether DNP-conjugated EPIs could promote the opsonophagocytic killing (OPK) of K. pneumoniae by macrophages. This was tested by using an OPK assay. Briefly, K. pneumoniae cells were treated with EPI and then anti-DNP antibody before being exposed to macrophages for either 6 or 24 hours. During this incubation period, macrophages that recognize K. pneumoniae cells will phagocytose them, and phagocytosed bacteria will remain viable for up to 6 hours, but within 24 hours are rendered inviable by OPK. Thus, macrophages were isolated after 6 and 24 hours of incubation with K. pneumoniae, lysed them, and plated and grew the lysate, which yielded bacterial colonies that reflect the phagocytosis (at 6 hrs) or OPK (at 24 hrs) of bacteria.
Given that cy(LLFFF)-DNP (SEQ ID NO:5) recruits antibodies to K. pneumoniae surfaces, it was expected that K. pneumoniae opsonized in this manner would be more susceptible to phagocytosis by macrophages. AR-PCC-driven phagocytosis and OPK were quantified by a gentamicin protection assay, as depicted in FIG. 7A. For this assay, K. pneumoniae cells (strain BAA 1705) were treated with cy(LLFFF)-DNP (SEQ ID NO:5), opsonized by anti-DNP antibodies, and then incubated with murine bone-marrow-derived macrophages (BMDMs). BMDMs were subsequently exposed to a solution containing gentamicin, to which K. pneumoniae strain BAA 1705 is susceptible, to kill any extracellular bacteria. Phagocytosed bacteria remain viable inside BMDMs for at least 1 h, yet are rendered inviable after 24 h by OPK (FIG. 13). Macrophages harvested at 1 h and 24 h were lysed and plated to generate bacterial colonies, which were enumerated to quantify phagocytosis and OPK.
Opsonophagocytic killing (OPK) assays. Klebsiella pneumoniae BAA1705 was treated with DNP-PCCs followed by incubation with anti-DNP antibody, as described above in the “Cell-Based ELISAs” section. These opsonized bacteria were then used to infect BMDMs at a multiplicity of infection of 50 for 0.5 h at 37° C. Bacteria were then washed by using RPMI 1640 Media and BMDMs were left in cell culture medium containing gentamicin (100 μg/ml). After 1 h and 24 h BMDMs were washed to remove gentamicin and intracellular bacteria were harvested by lysing BMDMs in RPMI media containing 0.2% Triton X 100. Bacterial CFUs were enumerated by plating onto LB agar. Bacterial counts at 1 h indicated the degree of opsonization while those at 24 h served as a measure of microbicidal activity of macrophages. For these measurements, anti-MrkA antibody and K. pneumoniae antiserum were used at dilutions of 5 μg/mL each.

[4] = tested on: MrkA-expressing K. pneumoniae cells; assay: Whole-cell ELISA of biotinylated PCC binding
[5] = strain BAA 1705, PCC 5 μM or lower

For “cy(LAFFF): alanine-substituted cy(LLFFF) analogue ([Lys(N3)]LAFFFX; triazole 1-7; not fully specified (residue 7); printed as cy(LAFFF))”, the “binding / affinity to full-length MrkA protein (ELISA signal)” value (shortened to “binding / affinity”) [1] was “Modestly lower binding”.
With “cy(GVHRL): additional MrkA ligand with lower affinity (XGVHRL[Lys(N3)]; triazole 1-7; not fully specified (residue 1); printed as cy(GVHRL))” the “affinities to MrkA (likely)” value [1] was ~1 µM and the “binding / affinity” value [1] was “lower affinities to MrkA”.
In the case of “cy(LLAFF): alanine-substituted cy(LLFFF) analogue ([Lys(N3)]LLAFFX; triazole 1-7; not fully specified (residue 7); printed as cy(LLAFF))”, the “binding / affinity” value [1] is reported as “Modestly lower binding”.
For “Ref. compound (LLFFF; not fully specified (bridges); printed as cy(LLFFF); also: cyclised (cy), ring-closing ends (Pra and azidolysine) not shown in this chain)”, the “Isocratic point (%)” value ([2]; N-terminal tag Bio-Peg10-peg10-) was 74.53%, the “Isocratic point (%)” value ([2]; N-terminal tag Bio-peg5-) was 78.85% and the “Isocratic point (%)” value ([2]; N-terminal tag Bio-peg10-) was 75.88%. The “Relative affinity (ratio of ELISA signal versus cy(LLFFF))” value ([1]; ELISA 1, [MrkA] for ELISA N/A) was 1.00, the “Relative affinity (ratio of ELISA signal versus cy(LLFFF))” value ([1]; [MrkA] for ELISA 25 nM (ELISA 2, 5, 6)) was 1.00 and the “Relative affinity (ratio of ELISA signal versus cy(LLFFF))” value ([1]; [MrkA] for ELISA 50 nM (ELISA 3)) was 1.00. The “Relative affinity (ratio of ELISA signal versus cy(LLFFF))” value ([1]; [MrkA] for ELISA 100 nM (ELISA 4)) was 1.00.
With “cy(TTFFF): additional MrkA ligand with lower affinity ([Lys(N3)]TTFFFX; bridge 1-7; not fully specified (residue 7, bridges); printed as cy(TTFFF))” the “affinities to MrkA (likely)” value [1] was ~1 µM and the “binding / affinity” value [1] was “lower affinities to MrkA”.
For “cy(LLFFA)-DNP: DNP-conjugated control cy(LLFFA) ([Lys(N3)]LLFFAX; triazole 1-7; not fully specified (residue 7); printed as cy(LLFFA); also: DNP label)”, the “phagocytosis / OPK activity at 1 h, AR-PCC plus anti-DNP” value [3] was “None of these treatments elicited phagocytosis above basal levels” and the “phagocytosis at 1 h, AR-PCC only (no anti-DNP)” value [3] was “None of these treatments elicited phagocytosis above basal levels”.
In the case of “cy(YRHLG): additional MrkA ligand with lower affinity (XYRHLG[Lys(N3)]; bridge 1-7; not fully specified (residue 1, bridges); printed as cy(YRHLG))”, the “affinities to MrkA (likely)” value [1] is reported as ~1 µM and the “binding / affinity” value [1] is reported as “lower affinities to MrkA”.
With “cy(LLFFF)+R6-DNP: optimized compound cy(LLFFF)+R6 tagged with DNP ([Lys(N3)]LLFFF[Pra]RRRRRR; bridge 1-7; not fully specified (bridges); also: tagged with DNP, position not given here)” the “phagocytosis / OPK activity at 1 h, AR-PCC plus anti-DNP” value [3] was “comparable to that of cy(LLFFF)-DNP”, the “phagocytosis at 1 h, AR-PCC only (no anti-DNP)” value [3] was “None of these treatments elicited phagocytosis above basal levels” and the “colony counts at 1 h, AR-PCC plus anti-DNP antibody” value ([3]; murine BMDMs) was 85,000 CFU.
In the case of “cy(ALFFF): alanine-substituted cy(LLFFF) analogue ([Lys(N3)]ALFFFX; triazole 1-7; not fully specified (residue 7); printed as cy(ALFFF))”, the “binding / affinity” value [1] is reported as “Modestly lower binding”.
In the case of “cy(LLFFA): control compound differing from cy(LLFFF) by a single phenyl moiety ([Lys(N3)]LLFFA[Pra]; triazole 1-7)”, the “whole-cell ELISA signal, MrkA-knockout KPPR1” value ([4]; MrkA/B/C knockout KPPR1) is reported as “ELISA intensities comparable to baseline”, the “whole-cell ELISA signal at high PCC concentration, LB or G-CAA” value ([4]; strain BAA 1705, 50 μM PCC) is reported as “strong and comparable ELISA signals” and the “whole-cell ELISA 450 nm absorbance, cells cultured in G-CAA (high MrkA)” value [4, 5] is reported as “near-baseline absorbances”. The “whole-cell ELISA 450 nm absorbance, cells cultured in LB (low MrkA)” value [4, 5] was “near-baseline absorbances” and the “whole-cell ELISA signal, wild type KPPR1” value ([4]; wild type KPPR1 (ATCC 43816), G-CAA media, 5 μM down to 5 nM) was “much lower intensities; also recorded: Much lower binding”.
